Test system: MS2 coat protein
Assay: apparent KD of MS2 coat protein; designed switch direction (-1 OFF switch, 1 ON switch): -1; higher = weaker reporter binding
In short: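 An oligonucleotide input, 200 uM small-molecule ligand, or no input was present during titration of SNAP-549-labelled MS2 coat protein, which was doubled from 0.7 or 1.5 nM to 3 µM. Designed RNA switches had been transcribed on Illumina chips by stalled E. coli RNA polymerase. Apparent KD per design is the median over clusters of curves fitted to normalised cluster fluorescence.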

[1] = Eterna round: R95, input ligand: FMN 200 uM
[2] = Eterna round: R95, input ligand: microRNA oligo, concentration not stated
[3] = Eterna round: R95, input ligand: none
[4] = input ligand: microRNA oligo, concentration not stated

GAUUAUGCGAGCUUUAGGGACAUGAGGAUCACCCAUGUUCGUCUUAUUGGUCUAGGUACACUGACAUACCUAAAUCU [JMF 68] (puzzle: Sensor v3, turn-off variant 1)
apparent KD of MS2 coat protein [1]: 22.7 nM | apparent KD of MS2 coat protein [2]: 37.2 nM | apparent KD of MS2 coat protein [3]: 23 nM

ACCUAUGAGGAGGAUAUACGGUGCGAAAGGAAGGUAGAAGGCUUCACAUGAGGAUCACCCAUGUCGAUAAGCGA [EX6 #85] (Eterna round: R97, puzzle: Exclusion 6)
apparent KD of MS2 coat protein (input ligand: FMN 200 uM): 27.7 nM | apparent KD of MS2 coat protein (input ligand: none): 23.3 nM

CUGCUCCGUGUAGGAUAUGCAUACUCCCAUUAUGCAGAAGGACAUGAGGAUCACCCAUGUAUGUUAUUAUCAUGUGUUGCAUGC [Design 11] (Eterna round: R96, puzzle: Exclusion NG 1)
apparent KD of MS2 coat protein (input ligand: FMN 200 uM): 164 nM | apparent KD of MS2 coat protein [4]: 33.9 nM | apparent KD of MS2 coat protein (input ligand: none): 37.3 nM

CGUAGUCUUCGGACUACGAACAUGAGGAUCACCCAUGUAAUGAGCAGAUCCUCAUGCAAGCUUUUUGCUCGUCUUAU [Sensor v3 - turn-off variant 1 - 46] (puzzle: Sensor v3, turn-off variant 1)
apparent KD of MS2 coat protein [1]: 13.8 nM | apparent KD of MS2 coat protein [2]: 11.5 nM | apparent KD of MS2 coat protein [3]: 20.7 nM

AAUAAGCUAGGAUAUACAUGAGGAUCACCCAUGUGAGGGCACGGCCGGCGCGGGCCCGGUAGAAGGAGUCAUAA [Exc;s3-VI] (puzzle: Exclusion 3)
apparent KD of MS2 coat protein [2]: 26.4 nM

CGAUCACAUGAGGAUCACCCAUGUGAGGAUAUAAUAACGCGGCGUGAGCACGGGAAUUUUAGAAGGCACACGGU [Eternabot (Original) Solution 42] (Eterna round: R97, puzzle: Exclusion 1)
apparent KD of MS2 coat protein (input ligand: FMN 200 uM): 14.2 nM | apparent KD of MS2 coat protein (input ligand: none): 13 nM

CGUUACUACAAGCUUUGGGACAUGAGGAUCACCCAUGUUCGUCUUAUUGUAGUAGGUACGCUGACGUACCUACUACU [JL-sv1-2.10 Brourd mod] (puzzle: Sensor v3, turn-off variant 1)
apparent KD of MS2 coat protein [1]: 15.6 nM | apparent KD of MS2 coat protein [2]: 29 nM | apparent KD of MS2 coat protein [3]: 13.9 nM

UGUUGUUACGCAGGAUAUGAGGAUCACCCAUAGAAGGAUAACGAAAGUGAAGGUCUGAGGAUUACCCAGAAGGGCGGGUUAACA [pwkr exNG2 2xF5 2xFMN.2] (Eterna round: R96, puzzle: Exclusion NG 2)
apparent KD of MS2 coat protein (input ligand: FMN 200 uM): 294 nM | apparent KD of MS2 coat protein [4]: 74.2 nM | apparent KD of MS2 coat protein (input ligand: none): 92 nM

UUGAUGUGAGGAUAUAUUUUUUUUUUUCUUUAUGUUUUAUAACUUGAGGAUCACCCAAGUAGAAGGCGCUACGU [JR_Ex2_Sub064] (Eterna round: R97, puzzle: Exclusion 2)
apparent KD of MS2 coat protein (input ligand: FMN 200 uM): 51.7 nM | apparent KD of MS2 coat protein (input ligand: none): 30.5 nM

CUUUUGUGAGGAUAUCAGUAGUAAAAAAAUAAAAUUACUUCUGAGAAGGCACAUGAGGAUCACCCAUGUUCCUC [salish99_ex4_r3_027] (puzzle: Exclusion 4)
apparent KD of MS2 coat protein [2]: 37.4 nM

CACCCUGAUGACAAAUUACAUGAGGAUCACCCAUGUGCCUCGCAGGAUAUCCCAGCACGUCGCAAGGAGAAGGGCGACGCGCCA [Ralerira] (Eterna round: R96, puzzle: Exclusion NG 3)
apparent KD of MS2 coat protein (input ligand: FMN 200 uM): 31.5 nM | apparent KD of MS2 coat protein [4]: 23.9 nM | apparent KD of MS2 coat protein (input ligand: none): 41.3 nM

GCUAGUCAUGUCAGGAUAUGCUGUUCCUUGGAACAGCAGAAGGGACAUGAGGAUCACCCAUGUGCCUAACUAGC [Mat - Exclusion 4 - JL Mod - D12] (Eterna round: R97, puzzle: Brourd's mod of Exclusion 4)
apparent KD of MS2 coat protein (input ligand: FMN 200 uM): 558 nM | apparent KD of MS2 coat protein (input ligand: none): 43.8 nM

UUUAGUUCAGGAUAUGAUGAAUUAAACAUGAGGAUCACCCAUGUAGAUCCUGAAUUAACAUCAGAAGGGAAUAUUU [JL-ex5-4.47 Brourd mod] (Eterna round: R97, puzzle: Exclusion 5)
apparent KD of MS2 coat protein (input ligand: FMN 200 uM): 15.1 nM | apparent KD of MS2 coat protein (input ligand: none): 13.7 nM

GGUGCGUUUGUGAGGAUAUGCUGGUCCUUGGGUCAGCAGAAGGCACAUGAGGAUCACCCAUGUGGUGUCGUACC [salish99_Bmod_Ex4_032] (puzzle: Brourd's mod of Exclusion 4)
apparent KD of MS2 coat protein [2]: 178 nM

AGCUGUGGCCGAGGAUAUCUAAAUUCUUAAAACGAAAUAUAAUCGAACAUGAGGAUCACCCAUGUAGAGAAGGCGGUCUCAGCA [Eli eng2 - 059] (Eterna round: R96, puzzle: Exclusion NG 2)
apparent KD of MS2 coat protein [4]: 13.4 nM

GCAUGCUCCGAGGAUAUCGAAGCUAAUUAUGCACGAGAAGGCGGAACAUGAGGAUCACCCAUGUGAUGCCAAUG [Qutequen] (Eterna round: R97, puzzle: Exclusion 6)
apparent KD of MS2 coat protein (input ligand: FMN 200 uM): 51.9 nM | apparent KD of MS2 coat protein (input ligand: none): 21.6 nM

CGGCAACAUGAGGAUCACCCAUGUUAGGAUAUCGGUGGCUGACACGAAACAGGACCGGUGAGAAGGAGUAUGGU [Eternabot (L1) Solution 2] (Eterna round: R97, puzzle: Exclusion 1)
apparent KD of MS2 coat protein (input ligand: FMN 200 uM): 39 nM | apparent KD of MS2 coat protein (input ligand: none): 39.2 nM

AGCUAGUGCCGAGGAUAUACAUGAGGAUCACCCAUGUAGGCCAGUCGGUUUCUGACUGGCGAGAUGUAGAAGGCGGCGUUGGCA [JL ENG2 1.51] (Eterna round: R96, puzzle: Exclusion NG 2)
apparent KD of MS2 coat protein (input ligand: FMN 200 uM): 49 nM | apparent KD of MS2 coat protein [4]: 12.6 nM | apparent KD of MS2 coat protein (input ligand: none): 15.6 nM

GCGGACUUGAUCGUGAGAUCAGAGACAUGAGGAUCACCCAUGUAGGAUAUCGAUUCGUUUCGAAUCGAGAAGGGCGUGGUCCGC [JL denovo 15] (Eterna round: R96, puzzle: Exclusion NG 3)
apparent KD of MS2 coat protein (input ligand: FMN 200 uM): 83.9 nM | apparent KD of MS2 coat protein [4]: 52.2 nM | apparent KD of MS2 coat protein (input ligand: none): 70.2 nM

UACGAGUUAGGAUAUGCUUUGGGCUCGCUUUCCUUCGAUAAACUUGAGGAUCACCCAAGUAGAAGGAACUUGUA [Mod 34 - Jieux - Exclusion 2] (Eterna round: R97, puzzle: Exclusion 2)
apparent KD of MS2 coat protein (input ligand: FMN 200 uM): 49.2 nM | apparent KD of MS2 coat protein (input ligand: none): 29.6 nM

UUCUUACAUGAGGAUCACCCAUGUCAGGAUAUCUCCACACUGCGCUUGCGCAGUGUAUAGAGAAGGGACAGGCU [JL ViennaUCT Aner mod 5] (puzzle: Exclusion 1)
apparent KD of MS2 coat protein [2]: 40.7 nM

AUUUUGUCAGGAUAUGACUAGUAGGACGAGAGUGCUACUACUUAGAAGGGACAUGAGGAUCACCCAUGUAUUCC [Bring Us a Shrubbery-09] (puzzle: Exclusion 4)
apparent KD of MS2 coat protein [2]: 14.1 nM

UUGGAGAUAGGAUAUACGAGGAGAGUAGAGGGAAGGUGAGGACAUGAGGAUCACCCAUGUAGAAGGAUCAGGAG [JR_Exclu2_Sub067] (puzzle: Exclusion 2)
apparent KD of MS2 coat protein [1]: 34.8 nM | apparent KD of MS2 coat protein [2]: 34.8 nM | apparent KD of MS2 coat protein [3]: 47.6 nM

AGAGUGCUGCGAGGAUAUACAUGAGGAUCACCCAUGUUUUCGUGUGAGGCUUUGCCUCACACGAAGUAGAAGGCGCAGUACUCA [Mat - Exclusion NG 2 - Mod of JL - D32] (Eterna round: R96, puzzle: Exclusion NG 2)
apparent KD of MS2 coat protein (input ligand: FMN 200 uM): 7.28 nM | apparent KD of MS2 coat protein [4]: 9.46 nM | apparent KD of MS2 coat protein (input ligand: none): 10.9 nM

AGAUGUAGAUACCGGUCCUACAUGAGGAUCACCCAUGUAGCUAGACGUGCGGGCGGCGCUCGUCGGACUACCAGUAG [salish99_TOv1_r3_098] (puzzle: Sensor v3, turn-off variant 1)
apparent KD of MS2 coat protein [1]: 39.4 nM | apparent KD of MS2 coat protein [2]: 42.8 nM | apparent KD of MS2 coat protein [3]: 59.7 nM

AAAUCACAUGAGGAUCACCCAUGUGAGGAUAUGAUACUAUGUACUUCGGUACAUAGUAUCAGAAGGCAUGUGGA [Ex1-3: 89] (puzzle: Exclusion 1)
apparent KD of MS2 coat protein [2]: 28.2 nM

AGACAGUCAGGAUAUACAUGAGGAUCACCCAUGUUGAGAUGUGAAAGGGCAGGAAUAGGUAGAAGGGACGAGAG [JR_Exclu3_Sub038] (puzzle: Exclusion 3)
apparent KD of MS2 coat protein [2]: 30.6 nM

AAUAACAGAGGAUAUACUGUUUUAUGUAUUUAUUAUUUUGAACAUGAGGAUCACCCAUGUAGAAGGCUGAUUAA [JMF 48] (puzzle: Exclusion 2)
apparent KD of MS2 coat protein [2]: 29.6 nM

GAUUAUGCGAGCUUUAGGGACAUGAGGAUCACCCAUGUUCGUCUUAUUAGUCUAAAUACACUGACAUACCUAAAUCU [JMF 54] (puzzle: Sensor v3, turn-off variant 1)
apparent KD of MS2 coat protein [1]: 17.3 nM | apparent KD of MS2 coat protein [2]: 15.9 nM | apparent KD of MS2 coat protein [3]: 13.6 nM

AACAAGGUAGGAUAUACAUGAGGAUCACCCAUGUCCCACCCGUUACCUAUGACCAUAUGUAGAAGGACCAAUAA [Exy#6] (Eterna round: R97, puzzle: Exclusion 3)
apparent KD of MS2 coat protein (input ligand: FMN 200 uM): 16.7 nM | apparent KD of MS2 coat protein (input ligand: none): 17.8 nM

UGUGCUUCAGGAUAUACGUGACGACCGUGAGGUCGAAGGUUACAUGAGGAUCACCCAUGUAGAAGGGAAGUACU [Mat - Exclusion 2 - JL Mod - D29] (Eterna round: R97, puzzle: Exclusion 2)
apparent KD of MS2 coat protein (input ligand: FMN 200 uM): 66.8 nM | apparent KD of MS2 coat protein (input ligand: none): 33 nM

AGUAACAGAGGAUAUACUAUUUUAUGUGUUUAUUAUUUUGAACAUGAGGAUCACCCAUGUAGAAGGCUGAAUAA [JMF 91] (puzzle: Exclusion 2)
apparent KD of MS2 coat protein [2]: 27.2 nM

UGCCGGCAUGUAAGGAUAUCCAGGAGAUGUAGAUCGGAGAAGGUACAUGAGGAUCACCCAUGUAUUCCAAUAAA [BmEX4 C.19] (Eterna round: R97, puzzle: Brourd's mod of Exclusion 4)
apparent KD of MS2 coat protein (input ligand: FMN 200 uM): 18 nM | apparent KD of MS2 coat protein (input ligand: none): 18.5 nM

UUACCAUGCCGCCUAAUAGCUUUUUGCUCGUCUUAUAUUACAUGAGGAUCACCCAUGUAGAUCAUGUGGCGUGACCU [JL ViennaUCT Maridi mod 2] (puzzle: Sensor v3, turn-off variant 2)
apparent KD of MS2 coat protein [1]: 126 nM | apparent KD of MS2 coat protein [2]: 39.6 nM | apparent KD of MS2 coat protein [3]: 121 nM

GGUCAAGGACAGCUCCGCGCUGCCCUUGACCGCUCAUUUACAUGAGGAUCACCCAUGUUUUUUGCUUGUCUUGUUUC [Atedorgela] (puzzle: Sensor v3, turn-off variant 2)
apparent KD of MS2 coat protein [1]: 20 nM | apparent KD of MS2 coat protein [2]: 110 nM | apparent KD of MS2 coat protein [3]: 24.2 nM

Reference: the supplement of paper PMC9170038
